Assays:
[1] = target: T1, Recombinant human LAG-3 ECD-His6 (human, UniProt P18627 23-433); experiment: SPR Biacore T100, antibody captured on Protein A, LAG-3 ECD-His6 analyte, 1:1 model, 25 C, geometric mean of 3 runs (table head says nM; value is in M by paragraph 194)
T1 construct: also called LAG-3-His; recombinant human LAG-3-His
T1 sequence: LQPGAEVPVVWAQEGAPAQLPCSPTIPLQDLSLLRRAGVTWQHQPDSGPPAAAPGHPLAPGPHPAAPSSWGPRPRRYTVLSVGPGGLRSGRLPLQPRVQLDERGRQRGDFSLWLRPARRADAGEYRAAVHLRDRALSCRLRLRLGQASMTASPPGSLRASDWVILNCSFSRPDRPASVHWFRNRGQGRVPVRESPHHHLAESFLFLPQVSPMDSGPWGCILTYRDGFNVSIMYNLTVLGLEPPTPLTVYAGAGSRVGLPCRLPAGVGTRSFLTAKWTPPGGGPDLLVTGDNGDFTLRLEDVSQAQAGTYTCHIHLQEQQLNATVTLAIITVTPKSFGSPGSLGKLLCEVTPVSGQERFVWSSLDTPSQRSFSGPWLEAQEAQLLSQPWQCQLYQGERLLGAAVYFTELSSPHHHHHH
Description: (§1) Wild type fucosylated and afucosylated antibodies were compared for their ability to bind to recombinant human LAG-3 ECD with a C-terminal His6 (SEQ ID NO:51) using the Biacore™ T100 (GE Healthcare™). Protein A was immobilised on a CM5 chip by primary amine coupling. This surface was then used to capture the humanised antibodies. Recombinant human LAG-3 ECD-His6 was then passed over the captured antibodies at 32, 8, 2, 0.5 and 0.125 nM and regeneration was carried out using 50 mM NaOH. The binding curves were double referenced with buffer injection (i.e. 0 nM) and the data was fitted to the T100 analysis software using the 1:1 model. The run was carried out at 25° C., using HBS-EP as the running buffer.
(§2) In order to investigate the statistical significance of this kinetic data, this experiment was repeated 3 times with the same batch of the four antibodies and the chimeric control. KD, ka and kd parameters were each log (base 10) transformed prior to separate statistical analyses. For each parameter, a mixed model analysis of variance CAnova′) was performed on transformed data, including terms for Run (random block effect) and Antibody.

[2] = target: T1, Recombinant human LAG-3 ECD-His6; experiment: SPR Biacore T100, Anova comparison of kd
Description: as §1, §2
(§3) From the Anova, geometric means were predicted for each antibody, along with statistically plausible ranges (95% confidence intervals) for each mean. Planned comparisons of antibodies were performed within the Anova. […]

[3] = target: T2, Human LAG-3 on cells (human LAG-3 expressing EL4 cells; activated human CD3+ T cells) (human, UniProt P18627 23-525); experiment: flow cytometry (MFI), Alexa647-conjugated antibody titrated on human LAG-3 expressing EL4 cells; direct binding curve, half-maximal value labelled IC50 in the table under the graph; unit taken from the concentration axis
T2 construct: whole, on cells; also called LAG-3 positive T cells
T2 sequence (looked up): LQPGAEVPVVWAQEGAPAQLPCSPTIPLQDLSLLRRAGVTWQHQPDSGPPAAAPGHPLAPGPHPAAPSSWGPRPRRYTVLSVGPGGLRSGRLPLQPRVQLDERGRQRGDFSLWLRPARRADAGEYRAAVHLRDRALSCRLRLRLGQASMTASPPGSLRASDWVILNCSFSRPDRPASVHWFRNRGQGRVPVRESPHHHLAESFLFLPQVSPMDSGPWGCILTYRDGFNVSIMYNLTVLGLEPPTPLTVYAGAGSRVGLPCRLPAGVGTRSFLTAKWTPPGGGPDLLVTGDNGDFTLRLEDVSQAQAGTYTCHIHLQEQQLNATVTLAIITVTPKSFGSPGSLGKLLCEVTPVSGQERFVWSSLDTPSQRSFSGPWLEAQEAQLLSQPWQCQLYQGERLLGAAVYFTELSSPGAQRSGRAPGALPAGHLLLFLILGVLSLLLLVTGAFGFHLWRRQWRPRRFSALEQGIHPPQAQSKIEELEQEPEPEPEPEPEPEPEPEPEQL
Description: Human LAG-3 expressing EL4 cells were incubated with either IMP731, H5L7 or H5L7BW Alexa647-conjugated antibodies at varying concentrations of up to 50 μg/ml for 30 minutes at room temperature. Cells were washed with FACS buffer (PBS+0.5% BSA) to remove unbound antibody.
EL4 cells and CD3⁺ T cells were analysed by FACS using a Beckman Coulter FC 500 flow cytometer. FACS raw data were analysed using CXP Analysis software (Beckman Coulter). The data was initially plotted on a forward-scatter versus side-scatter plot and the population of cells of interest were gated. This gated population was then plotted as a histogram displaying fluorescence intensity and the mean fluorescence intensity (MFI) calculated. MFI values were then plotted in GraphPad Prism 5 software to generate dose response curves.

[4] = target: T1, Recombinant human LAG-3 ECD-His6; experiment: SPR Biacore T100, Anova comparison of KD
Description: as §1, §2, §3

B1: H5L7BW (antibody, human IgG1, kappa)
heavy: not shown
light: DIQMTQSPSSLSASVGDRVTITCKSSQSLLNPSNQKNYLAWYQQKPGKAPKLLVYFASTRDSGVPSRFSGSGSGTDFTLTISSLQPEDFATYYCLQHFGTPPTFGQGTKLEIKRTVAAPSVFIFPPSDEQLKSGTASVVCLLNNFYPREAKVQWKVDNALQSGNSQESVTEQDSKDSTYSLSSTLTLSKADYEKHKVYACEVTHQGLSSPVTKSFNRGEC
modifications: afucosylated: no fucose on the core carbohydrate structure attached to Asn297
notes: Same plasmids as H5L7, expressed in the BioWa POTELLIGENT (FUT8 knock-out CHO) cell line; also called afucosylated antibody H5L7BW; afucosylated H5L7
Kd [1]: 0.218 nM
kd ratio against H5L7 [2]: 1.12 ratio
IC50 [3]: 0.0169 µg/mL
KD ratio against H5L7 [4]: 1.05 ratio

B2: IMP731 (antibody, human IgG1, kappa)
heavy: not shown
light: DIVMTQSPSSLAVSVGQKVTMSCKSSQSLLNGSNQKNYLAWYQQKPGQSPKLLVYFASTRDSGVPDRFIGSGSGTDFTLTISSVQAEDLADYFCLQHFGTPPTFGGGTKLEIKRTVAAPSVFIFPPSDEQLKSGTASVVCLLNNFYPREAKVQWKVDNALQSGNSQESVTEQDSKDSTYSLSSTLTLSKADYEKHKVYACEVTHQGLSSPVTKSFNRGEC
notes: Chimeric (murine variable domains, human IgG1/kappa constant regions); also called A9H12; chimeric antibody IMP731
Kd [1]: 2.76 nM
IC50 [3]: 0.013 µg/mL

B3: H5L7 (antibody, human IgG1, kappa)
heavy: not shown
light: B1 light
notes: Humanised IgG1/kappa of A9H12 (IMP731); also called fucosylated H5L7; non-ADCC enhanced variant H5L7
Kd [1]: 0.208 nM
kd ratio against IMP731 [2]: 0.155 ratio
IC50 [3]: 0.0142 µg/mL
KD ratio against IMP731 [4]: 0.0774 ratio

Source: patent US20160017037A1 (GlaxoSmithKline, published 2016)
